# Assay results taken from patent US20060110388A1 (APPLIED MOLECULAR EVOLUTION, published 2006).
# Where “and” joins values, the source holds several entries; their conditions need not be identical. Equal values may be shown once.
# Legend:
# [1] = biological target: T1, β Amyloid peptide 1-40 (human, UniProt P05067 672-711); experiment: KinExA, Fab, equilibration 16 h
# T1 construct: domain: β Amyloid peptide 1-40; Biotinylated peptide 1-40 (Biosource) on avidin Sepharose only captured free antibody in KinExA; also called Aβ 1-40; human Aβ (1-40)
# Protocol: (§1) Typical 1× concentrations were 10 pM of antibody active sites (0.75 ng/mL) and an upper antigen concentration of 100 pM (0.43 ng/mL). […] A KinExA™ instrument (Sapidyne) and standard KD run file were then used to determine the KD of the system. Briefly, the KinExA™ flow cell was charged with the β Amyloid peptide coated beads and washed with PBSA. For the first sample, free antibody in solution was captured by the beads washed with PBSA and detected using 1:250 Goat anti-human Cy5 (Jackson Immunochemicals) in PBSA. The flow cell was then flushed, re-charged with beads and the next sample analyzed. The process was repeated until all 12 samples were analyzed.
# (§2) For KinExA™ kₒₙ and koff measurements, antigen and antibody were prepared as described above. Antigen and antibody samples at 2× active concentration were prepared in PBSA with 0.2% BSA. Samples were mixed 1:1 and the timing for the experiment started. Typical 1× concentrations were 1 nM antibody active site concentration ([…]) and 2 nM antigen (8.6 ng/mL). A KinExA™ instrument (Sapidyne) and a kineticsdirect run file were used to follow the reaction. Time for each measurement was determined using the manufacturer's instructions. Free antibody remaining in the reaction was captured using β amyloid coated beads packed into the flow cell washed with PBSA and detected at each time point using 1:250 Goat anti-human Cy5 (Jackson) in PBSA. The flow cell was then flushed and recharged with beads for the next measurement, the process continued until a complete decay curve obtained. The data was analyzed using the KinExA™ Inject software.
# [2] = biological target: T1, β Amyloid peptide 1-40; experiment: KinExA, Fab, equilibration 24 h
# Protocol: (§3) Typical 1× concentrations were 10 pM of antibody active sites (0.75 ng/mL) and an upper antigen concentration of 100 pM (0.43 ng/mL). The samples were then allowed to equilibrate for 24-72 hours at room temperature. A KinExA™ instrument (Sapidyne) and standard KD run file were then used to determine the KD of the system. Briefly, the KinExA™ flow cell was charged with the β Amyloid peptide coated beads and washed with PBSA. For the first sample, free antibody in solution was captured by the beads washed with PBSA and detected using 1:250 Goat anti-human Cy5 (Jackson Immunochemicals) in PBSA. The flow cell was then flushed, re-charged with beads and the next sample analyzed. The process was repeated until all 12 samples were analyzed.
# as §2
# [3] = biological target: T1, β Amyloid peptide 1-40; experiment: KinExA, mAb, single experiment, separate antibody preparation
# Protocol: as §2
# (§4) Association rate constants (kₒₙ) of m266 and antibodies of the present invention with Aβ were determined by KinExA™, using methods as described above in Example 1. […]
# (§5) ^aNumbers in bold are the averages calculated from individual experiments. ^bA separate preparation of antibodies was used for these experiments. ^cA separate preparation of antigen was used for these experiments.
# [4] = biological target: T1, β Amyloid peptide 1-40; experiment: BIAcore, mAb captured, Aβ 1-40 injected, first set of preparations
# Protocol: (§6) BIAcore™ is an automated biosensor system that measures molecular interactions (Karlsson, et al. (1991) J. Immunol. Methods 145: 229-240). BIAcore™ analyses described herein were carried out at 25° C. In these experiments, antibody was immobilized at low density on a BIAcore™ CM5 or B1 chip. For the m266 antibody goat anti-mouse Fc (Jackson Immunoresearch) immobilized on CM5 in flow cell 2 was used for measuring binding constants. Goat anti-mouse was used as control antibody in flow cell 1. For the humanized antibodies, protein A or protein A/G was immobilized via amine coupling to flow cells 1 and 2 of a B1 or CM5 sensor chip.
# (§7) Antibody was then captured only to flow cell 2 at desired levels (usually a 10-60 second injection of antibody) and allowed to stabilize for 5 minutes. For these experiments, a fresh aliquot of Aβ 1-40 was thawed and then diluted 1:10 in HBS-EP running buffer. The 1:10 dilution was used to make up a 200 nM Aβ solution which was serially diluted (1:2 dilutions) to a lowest concentration of 6.25 nM. Each concentration was injected over the surface for 5 minutes at a flow rate of 50 μl/min (250 μl total). The Aβ and antibody were eluted from both flow cells with a 40s injection of glycine pH 1.5. The signal is allowed to stabilize for 2 minutes before the next cycle. The data from flow cell 1 is subtracted from flow cell 2 to account for any bulk shifts due to buffer differences or non-specific binding to the sensor chip or Protein A. The various concentrations were injected randomly and each concentration was run in duplicate. Two control runs of buffer only were used to control for any dissociation of antibody from the capture surface. The data was analyzed using the Biaevalution™ software. A 1:1 model with mass transfer and a local Rmax was used as the best fit for the data.
# Concentrations of human Aβ (1-40) from 200 nM to 1.6 nM in 2-fold serial dilution were used to obtain on-rate constant. […]
# [5] = biological target: T1, β Amyloid peptide 1-40; experiment: KinExA, mAb, single experiment, separate antibody and antigen preparations
# Protocol: as §2, §4, §5
# [6] = biological target: T1, β Amyloid peptide 1-40; experiment: KinExA, mAb, average of the experiments
# Protocol: as §2
# (§8) Association rate constants (kₒₙ) of m266 and antibodies of the present invention with Aβ were determined by KinExA™, using methods as described above in Example 1. The results of two separate kₒₙ determinations by KinExA™, in which separate preparations of antibodies were used, are provided in Tables 7 and 8.
# [7] = biological target: T1, β Amyloid peptide 1-40; experiment: KinExA, mAb, average of the experiments; remark: listed apart in the source
# Protocol: as §2, §8
# [8] = biological target: T1, β Amyloid peptide 1-40; experiment: KinExA, mAb, single experiment
# Protocol: as §2, §8
# [9] = biological target: T1, β Amyloid peptide 1-40; experiment: BIAcore; against m266
# Protocol: as §6, §7
# Concentrations of human Aβ (1-40) from 200 nM to 1.6 nM in 2-fold serial dilution were used to obtain on-rate constant. The upper half of Table 6 represents determinations made with a first set of antibody preparations, while the lower half represents determinations made with a second set of antibody preparations
# [10] = biological target: T1, β Amyloid peptide 1-40; experiment: KinExA, mAb, single experiment, separate antigen preparation
# Protocol: as §2, §4, §5
# [11] = biological target: T1, β Amyloid peptide 1-40; experiment: KinExA, mAb, average of the experiments; remark: listed apart in the source
# Protocol: as §3
# [12] = biological target: T1, β Amyloid peptide 1-40; experiment: KinExA, mAb, single experiment; remark: listed apart in the source
# Protocol: as §2, §8
# [13] = biological target: T1, β Amyloid peptide 1-40; experiment: KinExA, mAb; against m266
# Protocol: as §3
# [14] = biological target: T1, β Amyloid peptide 1-40; experiment: KinExA, mAb, single experiment; remark: listed apart in the source
# Protocol: as §3
# [15] = biological target: T1, β Amyloid peptide 1-40; experiment: KinExA, mAb, equilibration 24 h
# Protocol: as §3, §2
# [16] = biological target: T1, β Amyloid peptide 1-40; experiment: KinExA, mAb; against m266; remark: listed apart in the source
# Protocol: as §2, §8
# [17] = biological target: T1, β Amyloid peptide 1-40; experiment: KinExA, mAb, equilibration 16 h
# Protocol: as §1, §2
# [18] = biological target: T1, β Amyloid peptide 1-40; experiment: KinExA, mAb
# Protocol: as §3
# [19] = biological target: T1, β Amyloid peptide 1-40; experiment: BIAcore, mAb captured, Aβ 1-40 injected, second set of preparations
# Protocol: as §6
# Antibody was then captured only to flow cell 2 at desired levels (usually a 10-60 second injection of antibody) and allowed to stabilize for 5 minutes. For these experiments, a fresh aliquot of Aβ 1-40 was thawed and then diluted 1:10 in HBS-EP running buffer. The 1:10 dilution was used to make up a 200 nM Aβ solution which was serially diluted (1:2 dilutions) to a lowest concentration of 6.25 nM. Each concentration was injected over the surface for 5 minutes at a flow rate of 50 μl/min (250 μl total). The Aβ and antibody were eluted from both flow cells with a 40s injection of glycine pH 1.5. The signal is allowed to stabilize for 2 minutes before the next cycle. […] The data was analyzed using the Biaevalution™ software. […]
# T1 sequence (P05067 672-711 limits assumed): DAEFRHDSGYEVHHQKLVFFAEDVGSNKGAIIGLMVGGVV
binder,measurement,setting,value
"m266 Fab fragment (Fab, V domains shown) VH: EVKLVESGGGLVQPGGSLKLSCAVSGFTFSRYSMSWVRQTPEKRLELVAQINSVGNSTYYPDTVKGRFTISRDNAEYTLSLQMSGLRSDDTATYYCASGDYWGQGTTLTVSS VL: DVVMTQTPLSLPVSLGDQASISCRSSQSLIYSDGNAYLHWFLQKPGQSPKLLIYKVSNRFSGVPDRFSGSGSGTDFTLKISRVETEDLGVYFCSQSTHVPWTFGGGTKLEIK",Kd,[1],138 pM
same,koff,[1],4.96e-05 s⁻¹
same,kon,[1],360000 M⁻¹ s⁻¹
"1A1 Fab (Fab, V domains shown, Fab clone) VH: EVQLVESGGGLVKPGGSLRLSCAASGYTFSRYSMSWVRQAPGKGLEWVGQINIRGNNTYYPDTVKGRFTISRDDSKNTLYLQMNSLKTEDTAVYYCTTGDFWGQGTLVTVSS VL: DIVMTQTPLSLSVTPGQPASISCSSSQSLIYSDGNAYLHWYLQKPGQSPQLLIYKVSNRFSGVPDRFSGSGSGTDFTLKISRVEAEDVGVYYCTQSTHSPWTFGGGTKVEIK",Kd,[2],1.9 pM
same,koff,[2],1.6e-06 s⁻¹
same,kon,[2],830000 M⁻¹ s⁻¹
"1A1 monoclonal antibody (IgG1) (antibody, V domains shown) VH: EVQLVESGGGLVKPGGSLRLSCAASGYTFSRYSMSWVRQAPGKGLEWVGQINIRGNNTYYPDTVKGRFTISRDDSKNTLYLQMNSLKTEDTAVYYCTTGDFWGQGTLVTVSS VL: DIVMTQTPLSLSVTPGQPASISCSSSQSLIYSDGNAYLHWYLQKPGQSPQLLIYKVSNRFSGVPDRFSGSGSGTDFTLKISRVEAEDVGVYYCTQSTHSPWTFGGGTKVEIK",kon,[3],762000 M⁻¹ s⁻¹
same,kon,[4],390000 M⁻¹ s⁻¹
same,kon,[5],851000 M⁻¹ s⁻¹
same,kon,[6],913000 M⁻¹ s⁻¹
same,kon,[7],510000 M⁻¹ s⁻¹
same,kon,[8],580000 M⁻¹ s⁻¹ and 550000 M⁻¹ s⁻¹ and 390000 M⁻¹ s⁻¹
same,Fold Increase (kon),[9],3 fold
same,kon,[10],976000 M⁻¹ s⁻¹
same,Kd,[11],4.5 pM
same,kon,[12],1.06e+06 M⁻¹ s⁻¹ and 954000 M⁻¹ s⁻¹ and 912000 M⁻¹ s⁻¹ and 883000 M⁻¹ s⁻¹
same,Fold increase in affinity,[13],17 fold
same,Kd,[14],3.2 pM and 5.7 pM
same,Kd,[15],1.2 pM
same,koff,[15],1.1e-06 s⁻¹
same,kon,[15],880000 M⁻¹ s⁻¹
same,Fold increase in kon,[16],2 fold
"1D4 monoclonal antibody (IgG1) (antibody, V domains shown) VH: EVQLVESGGGLVKPGGSLRLSCAASGFTFSRYSMSWVRQAPGKGLEWVGQINSQGNSTYYPDTVKGRFTISRDDSKNTLYLQMNSLKTEDTAVYYCTTGDRWGQGTLVTVSS VL: DIVMTQTPLSLSVTPGQPASISCRSSQSLIYSDGNAYLHWYLQKPGQSPQLLIYKVSNRFSGVPDRFSGSGSGTDFTLKISRVEAEDVGVYYCSQSTHSPWTFGGGTKVEIK",Kd,[17],6310 pM
same,koff,[17],0.00074 s⁻¹
same,kon,[17],120000 M⁻¹ s⁻¹
same,kon,[4],470000 M⁻¹ s⁻¹
same,Fold Increase (kon),[9],4 fold
same,Fold increase in affinity,[13],0.005 fold
same,Kd,[18],15100 pM
"1C5 monoclonal antibody (IgG1) (antibody, V domains shown) VH: EVQLVESGGGLVKPGGSLRLSCAASGFTFSRYSMSWVRQAPGKGLEWVGQINSVANSTYYPDTVKGRFTISRDDSKNTLYLQMNSLKTEDTAVYYCTTGDFWGQGTLVTVSS VL: DIVMTQTPLSLSVTPGQPASISCRSSQSLIYSDGNAYLHWYLQKPGQSPQLLIYKVSNRFSGVPDRFSGSGSGTDFTLKISRVEAEDVGVYYCSQSTHSPWTFGGGTKVEIK",Kd,[17],973 pM
same,koff,[17],0.000371 s⁻¹
same,kon,[17],420000 M⁻¹ s⁻¹
"6C3 monoclonal antibody (IgG1) (antibody, V domains shown) VH: EVQLVESGGGLVKPGGSLRLSCAASGFTFSRYSMSWVRQAPGKGLEWVGQINSRGNSTYYPDTVKGRFTISRDDSKNTLYLQMNSLKTEDTAVYYCTTGDFWGQGTLVTVSS VL: DIVMTQTPLSLSVTPGQPASISCRSSQSLIYSDGNAYLHWYLQKPGQSPQLLIYKVSNRFSGVPDRFSGSGSGTDFTLKISRVEAEDVGVYYCTQSTHSPWTFGGGTKVEIK",Kd,[17],7.9 pM
same,koff,[17],1.01e-05 s⁻¹
same,kon,[17],1.28e+06 M⁻¹ s⁻¹
same,Fold Increase (kon),[9],5 fold
same,kon,[19],610000 M⁻¹ s⁻¹
"1A12 monoclonal antibody (IgG1) (antibody, V domains shown) VH: EVQLVESGGGLVKPGGSLRLSCAASGFTFSRYSMSWVRQAPGKGLEWVGQINIRGNNTYYPDTVKGRFTISRDDSKNTLYLQMNSLKTEDTAVYYCTTGDFWGQGTLVTVSS VL: DIVMTQTPLSLSVTPGQPASISCRSSQSLIYSDGNAYLHWYLQKPGQSPQLLIYKVSNRFSGVPDRFSGSGSGTDFTLKISRVEAEDVGVYYCSQSTHSPWTFGGGTKVEIK",Fold Increase (kon),[9],3 fold
same,kon,[19],410000 M⁻¹ s⁻¹
"1A12 Fab (Fab, V domains shown, Fab clone) VH: EVQLVESGGGLVKPGGSLRLSCAASGFTFSRYSMSWVRQAPGKGLEWVGQINIRGNNTYYPDTVKGRFTISRDDSKNTLYLQMNSLKTEDTAVYYCTTGDFWGQGTLVTVSS VL: DIVMTQTPLSLSVTPGQPASISCRSSQSLIYSDGNAYLHWYLQKPGQSPQLLIYKVSNRFSGVPDRFSGSGSGTDFTLKISRVEAEDVGVYYCSQSTHSPWTFGGGTKVEIK",Kd,[1],10.8 pM
same,koff,[1],1.72e-05 s⁻¹
same,kon,[1],1.59e+06 M⁻¹ s⁻¹
